Experiments:
Experiment in all cases: EMSA; EMSA/Gel-Shift buffer (Beyotime GS009; composition, salt and pH not stated), 10 uL, 25 C 30 min; 6% native PAGE in 0.5x TBE at 4 C
Details in all cases: protein: recombinant; tags: 6xHis (stated C-terminal; pET-30a); chain copies: 3; label: biotin; blunt
ZmHsf17-T109A = ZmHsf17-T109A (Zea mays, UniProt A0A5J6CYG6 1-373, T109A)
ZmHsf17-K142A = ZmHsf17-K142A (Zea mays, UniProt A0A5J6CYG6 1-373, K142A)
ZmHsf17-R105A = ZmHsf17-R105A (Zea mays, UniProt A0A5J6CYG6 1-373, R105A)
Sequence of ZmHsf17-R105A (A0A5J6CYG6 entry or part of it R105A | R105A R105A): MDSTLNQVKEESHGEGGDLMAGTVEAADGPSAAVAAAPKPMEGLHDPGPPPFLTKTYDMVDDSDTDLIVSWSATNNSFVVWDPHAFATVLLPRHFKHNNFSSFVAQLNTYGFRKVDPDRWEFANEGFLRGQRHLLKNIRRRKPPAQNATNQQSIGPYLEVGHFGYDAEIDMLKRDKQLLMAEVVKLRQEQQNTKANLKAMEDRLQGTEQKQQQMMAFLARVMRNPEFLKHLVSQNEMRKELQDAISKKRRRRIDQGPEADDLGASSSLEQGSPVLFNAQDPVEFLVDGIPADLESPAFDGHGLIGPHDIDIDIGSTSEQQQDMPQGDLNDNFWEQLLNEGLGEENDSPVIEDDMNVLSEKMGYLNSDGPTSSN

Sequence of ZmHsf17-T109A (A0A5J6CYG6 entry or part of it T109A | T109A T109A): as the sequence (A0A5J6CYG6 entry or part of it R105A | R105A R105A) above, with A105R, T109A counted along it
Sequence of ZmHsf17-K142A (A0A5J6CYG6 entry or part of it K142A | K142A K142A): as the sequence (A0A5J6CYG6 entry or part of it R105A | R105A R105A) above, with A105R, K142A counted along it

B1: ZmPAH1-HSE2 (dsDNA)
DNA 1: CAGCGTCACATGACGGGAATTTTCACGTCTTTTCAGCCCT
DNA 2: AGGGCTGAAAAGACGTGAAAATTCCCGTCATGTGACGCTG
binding result (ZmHsf17-T109A): binds | binding result (ZmHsf17-K142A): binds | binding result (ZmHsf17-R105A): no binding

Source: publication PMC12251660, “The Structural Deciphering of the α3 Helix Within ZmHsfA2’S DNA-Binding Domain for the Recognition of Heat Shock Elements in Maize”
